Data on 2 molecules can be found in patent publication US20210138083A1 (INATHERYS, published 2021).

For assay [1], the target named is T1, human transferrin receptor (Transferrin receptor protein 1 isoform 1, Homo sapiens, NCBI NP_003225.2) (Homo sapiens, UniProt P02786 1-760).
T1 construct: Carried by the CD71+ cell lines THP-1, MEC-1 and HL-60 and by CHO cells transfected with human CD71; also called TfR; CD71
The experiment in a line: flow cytometry, biotinylated antibody on THP-1 and MEC-1 cells, streptavidin Alexa F488. On the procedure:
Serial dilutions (5 to 0.05 ug/mL) of both biotinylated antibodies (antibody A24 and antibody of ADC INA01-SDV1) were performed and incubated on THP-1 and MEC-1 cell lines. The binding of the diluted antibodies was detected by Flow cytometry using streptavidin Alexa F488 (available at ThermoFisher scientific).

Assay [2] deals with T1, human transferrin receptor (Transferrin …). The experiment in a line: cell-based or functional assay.

T1 sequence (P02786 whole entry, canonical isoform): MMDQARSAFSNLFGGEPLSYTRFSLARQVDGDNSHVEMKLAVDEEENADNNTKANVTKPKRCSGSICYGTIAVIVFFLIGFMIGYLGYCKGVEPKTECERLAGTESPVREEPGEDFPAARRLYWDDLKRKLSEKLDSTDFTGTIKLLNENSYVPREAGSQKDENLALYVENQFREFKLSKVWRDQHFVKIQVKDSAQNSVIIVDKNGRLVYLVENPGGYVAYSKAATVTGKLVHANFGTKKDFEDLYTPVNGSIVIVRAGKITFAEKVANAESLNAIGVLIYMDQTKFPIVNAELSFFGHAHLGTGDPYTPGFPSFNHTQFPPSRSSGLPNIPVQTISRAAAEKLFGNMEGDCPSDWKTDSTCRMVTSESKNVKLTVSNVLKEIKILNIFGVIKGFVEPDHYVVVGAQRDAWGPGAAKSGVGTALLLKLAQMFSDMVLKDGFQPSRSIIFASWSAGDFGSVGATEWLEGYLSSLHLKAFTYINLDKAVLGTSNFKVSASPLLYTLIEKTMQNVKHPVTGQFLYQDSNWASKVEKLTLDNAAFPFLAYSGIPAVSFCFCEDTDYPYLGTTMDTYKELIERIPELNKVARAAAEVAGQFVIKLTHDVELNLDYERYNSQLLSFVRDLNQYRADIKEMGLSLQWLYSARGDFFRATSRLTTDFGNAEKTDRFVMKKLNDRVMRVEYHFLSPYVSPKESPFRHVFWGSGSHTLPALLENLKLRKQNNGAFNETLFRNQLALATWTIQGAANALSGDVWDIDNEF

B1: A24 (antibody, V domains shown)
VH: QIQLVQSGPELKKPGETVKISCKASGYTFTNQGMNWVKQAPGKGLKWMGWINTYTGEPINADDFKGRFAISLETSASTAYLQINNLKNEDMATYFCVREGWDSMDYWGQGTSVTVSS
VL: QIVLTQSPAIMSASPGEKVTITCSASSSVNYMHWFQQKPGTSPKLWIYSTSNLASGVPARFSGSGSGTSYSLTISRMEAEDAATYYCQQRSSYPLTFGAGTKLELKR
modifications: biotinylated in Example 1
notes: Mouse monoclonal IgG (IgG2kappa) as disclosed in WO 2005/111082; also called antibody A24; murine A24 antibody
For B1, the binding result in assay [1] is “binds”.

B2: INA01-SDV1 (antibody, human IgG4 S228P, kappa, V domains shown)
VH: QVQLVQSGPELKKPGASVKVSCKASGYTFTNQGMNWVKQAPGKGLKWMGWINTYTGEPINADDFKGRFVISLDTSASTAYLQISSLKAEDTAVYFCVREGWDSMDYWGQGTSVTVSS
VL: QIVLTQSPATLSVSPGERATLSCSASSSVNYMHWFQQKPGQSPRLLIYSTSNRATGIPARFSGSGSGTSYTLTISSLEPEDFAVYYCQQRSSYPLTFGQGTKLEIKR
modifications: linker APN (formula IV)-valine-citrulline-para-aminobenzyl ester-MMAE attached through the cysteine residues (thiols); biotinylated in Example 1
Regarding B2, in assay [2], the “IC50 of cell proliferation of HL-60 acute myeloid leukemia cell line” value was 0.08 µg/mL.
